Publication PMC11665612

How the values were obtained:
[1] = biological target: heme-binding globin domain of human androglobin (Adgb), Cys132 mutated to Ser (human)
[2] = biological target: FL-G41C CaM (calmodulin G41C labelled with fluorescein-5-maleimide at Cys41, N-lobe) (UniProt P0DP23); assay: fluorescence quenching on mixing

| Substance | k1 (fast) of nitrite reduction, Adgb–CaM complex against Adgb alone [1] | kcat of nitrite reduction by the Adgb–CaM complex (nitrite 2.5–15 mM) [1] | decrease in fluorescence intensity at 531 nm [2] |
| --- | --- | --- | --- |
| calmodulin (CaM) (from UniProt P0DP23 1-149) (natural protein) | 1.8 fold | 0.64 s⁻¹ |  |
| heme-binding globin domain of human androglobin (Adgb), Cys132 mutated to Ser (domain or fragment) |  |  | 35% |
